According to paper PMC9482650, “Quantitative fragmentomics allow affinity mapping of interactomes” (Nature Communications, 2022):

T1: GRIP1_3, Q9Y3R0
T1 sequence (Q9Y3R0 247-346, limits assumed, looked up): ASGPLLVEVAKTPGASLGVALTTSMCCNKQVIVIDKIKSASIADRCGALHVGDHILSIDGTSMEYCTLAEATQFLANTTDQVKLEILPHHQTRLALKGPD

T2: ARHGEF11, O15085
T2 sequence (O15085 42-136, limits assumed, looked up): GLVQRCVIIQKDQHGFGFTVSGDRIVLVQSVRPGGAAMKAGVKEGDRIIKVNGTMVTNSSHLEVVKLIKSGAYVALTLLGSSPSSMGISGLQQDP

T3: PDZD2_2, O15018
T3 sequence (O15018 329-429, limits assumed, looked up): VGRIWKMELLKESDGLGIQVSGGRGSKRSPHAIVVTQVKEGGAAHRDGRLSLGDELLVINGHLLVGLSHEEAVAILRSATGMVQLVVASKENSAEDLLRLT

T4: RAPGEF6, Q8TEU7
T4 sequence (Q8TEU7 525-625, limits assumed, looked up): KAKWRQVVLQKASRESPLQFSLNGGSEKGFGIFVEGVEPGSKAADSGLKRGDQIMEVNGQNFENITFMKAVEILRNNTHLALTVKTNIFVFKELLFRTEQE

T5: DFNB31_2, Q9P202
T5 sequence (Q9P202 274-371, limits assumed, looked up): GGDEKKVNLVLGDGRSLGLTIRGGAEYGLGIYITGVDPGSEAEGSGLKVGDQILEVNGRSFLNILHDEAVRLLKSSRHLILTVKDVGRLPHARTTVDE

T6: PCLO, Q9Y6V0
T6 sequence (Q9Y6V0 4491-4600, limits assumed, looked up): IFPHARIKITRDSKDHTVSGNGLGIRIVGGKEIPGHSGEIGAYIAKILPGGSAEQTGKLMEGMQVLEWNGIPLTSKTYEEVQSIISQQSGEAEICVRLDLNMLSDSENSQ

T7: GRIP1_5, Q9Y3R0
T7 sequence (Q9Y3R0 568-668, limits assumed, looked up): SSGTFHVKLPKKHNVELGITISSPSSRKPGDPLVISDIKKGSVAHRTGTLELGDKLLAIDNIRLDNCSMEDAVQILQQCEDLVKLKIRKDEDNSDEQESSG

T8: MPP6, Q9NZW5
T8 sequence (Q9NZW5 125-219, limits assumed, looked up): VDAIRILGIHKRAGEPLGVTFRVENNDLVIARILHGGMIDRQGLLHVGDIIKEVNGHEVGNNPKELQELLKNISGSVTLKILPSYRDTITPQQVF

T9: GRIP1_7, Q9Y3R0
T9 sequence (Q9Y3R0 999-1096, limits assumed, looked up): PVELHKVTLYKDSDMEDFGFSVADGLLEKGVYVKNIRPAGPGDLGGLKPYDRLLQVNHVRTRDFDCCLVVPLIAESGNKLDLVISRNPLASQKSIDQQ

T10: GRIP1_2, Q9Y3R0
T10 sequence (Q9Y3R0 145-248, limits assumed, looked up): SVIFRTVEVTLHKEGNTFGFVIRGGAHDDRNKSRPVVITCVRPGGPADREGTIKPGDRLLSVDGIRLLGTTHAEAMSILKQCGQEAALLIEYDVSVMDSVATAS


How the values were obtained:
Experiment in all cases: holdup assay
Design in all cases: key: below the threshold = too weak to quantify, mostly under pKd 3.1 to 4
Conditions in all cases: plain residues with an end cap or a label only (N-terminal biotin on a linker: ado-ado)
[1] = target: MAST2, Q6P0Q8
MAST2, Q6P0Q8, sequence (Q6P0Q8 1099-1202): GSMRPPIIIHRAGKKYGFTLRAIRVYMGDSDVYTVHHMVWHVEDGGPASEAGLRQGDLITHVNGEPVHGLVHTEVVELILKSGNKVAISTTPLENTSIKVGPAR

[2] = target: Inadl_3, Q8NI35
Inadl_3, Q8NI35, sequence (Q8NI35 359-469): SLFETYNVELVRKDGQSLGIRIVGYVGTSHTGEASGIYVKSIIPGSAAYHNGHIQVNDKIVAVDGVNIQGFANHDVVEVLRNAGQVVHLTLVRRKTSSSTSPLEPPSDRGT

[3] = target: T1, GRIP1_3, Q9Y3R0
[4] = target: T2, ARHGEF11, O15085
[5] = target: Inadl_10, Q8NI35
Inadl_10, Q8NI35, sequence (Q8NI35 1673-1763): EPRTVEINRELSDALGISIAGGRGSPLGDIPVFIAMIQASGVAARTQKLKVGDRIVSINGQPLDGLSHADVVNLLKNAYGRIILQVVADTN

[6] = target: AHNAK1, Q09666
AHNAK1, Q09666, sequence (Q09666 4-100): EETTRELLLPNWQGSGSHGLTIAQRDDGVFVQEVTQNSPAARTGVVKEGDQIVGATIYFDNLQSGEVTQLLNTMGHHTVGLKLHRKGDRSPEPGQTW

[7] = target: T3, PDZD2_2, O15018
[8] = target: T4, RAPGEF6, Q8TEU7
[9] = target: GORASP1, Q9BQQ3
GORASP1, Q9BQQ3, sequence (Q9BQQ3 1-208): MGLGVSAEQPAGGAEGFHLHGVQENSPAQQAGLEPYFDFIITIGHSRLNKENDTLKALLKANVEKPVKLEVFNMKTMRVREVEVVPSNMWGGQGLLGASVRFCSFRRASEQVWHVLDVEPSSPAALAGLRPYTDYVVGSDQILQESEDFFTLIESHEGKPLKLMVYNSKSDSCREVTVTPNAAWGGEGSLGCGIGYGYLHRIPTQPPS

[10] = target: T5, DFNB31_2, Q9P202
[11] = target: Inadl_2, Q8NI35
Inadl_2, Q8NI35, sequence (Q8NI35 238-335): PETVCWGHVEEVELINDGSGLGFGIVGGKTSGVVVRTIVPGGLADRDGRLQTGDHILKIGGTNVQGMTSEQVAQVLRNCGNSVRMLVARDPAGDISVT

[12] = target: GRIP2_6, Q9C0E4
GRIP2_6, Q9C0E4, sequence (Q9C0E4 648-740): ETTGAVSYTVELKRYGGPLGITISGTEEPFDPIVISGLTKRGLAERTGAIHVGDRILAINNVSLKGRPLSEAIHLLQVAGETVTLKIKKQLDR

[13] = target: Inadl_6, Q8NI35
Inadl_6, Q8NI35, sequence (Q8NI35 1058-1167): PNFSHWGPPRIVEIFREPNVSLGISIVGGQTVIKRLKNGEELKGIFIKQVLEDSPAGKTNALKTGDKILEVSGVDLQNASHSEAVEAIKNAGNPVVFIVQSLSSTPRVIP

[14] = target: TJP2_1, Q9UDY2
TJP2_1, Q9UDY2, sequence (Q9UDY2 24-128): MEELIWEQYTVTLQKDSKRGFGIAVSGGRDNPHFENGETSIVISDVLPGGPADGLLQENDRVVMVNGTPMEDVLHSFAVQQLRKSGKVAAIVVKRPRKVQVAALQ

[15] = target: SNX27, Q96L92
[16] = target: PDZRN4_1, Q6ZMN7
PDZRN4_1, Q6ZMN7, sequence (Q6ZMN7 213-318): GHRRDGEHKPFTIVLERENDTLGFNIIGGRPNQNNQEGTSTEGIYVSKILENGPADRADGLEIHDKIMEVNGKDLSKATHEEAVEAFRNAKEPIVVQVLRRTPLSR

[17] = target: MAGI2_5, Q86UL8
MAGI2_5, Q86UL8, sequence (Q86UL8 915-1017): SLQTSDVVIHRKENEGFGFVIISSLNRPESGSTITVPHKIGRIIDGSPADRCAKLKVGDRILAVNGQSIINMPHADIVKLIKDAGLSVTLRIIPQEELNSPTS

[18] = target: LIMK2, P53671
LIMK2, P53671, sequence (P53671 143-248): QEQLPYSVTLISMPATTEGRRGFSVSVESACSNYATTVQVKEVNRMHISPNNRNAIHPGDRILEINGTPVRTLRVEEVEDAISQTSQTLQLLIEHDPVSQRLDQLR

[19] = target: T6, PCLO, Q9Y6V0
[20] = target: GRIP2_7, Q9C0E4
GRIP2_7, Q9C0E4, sequence (Q9C0E4 934-1023): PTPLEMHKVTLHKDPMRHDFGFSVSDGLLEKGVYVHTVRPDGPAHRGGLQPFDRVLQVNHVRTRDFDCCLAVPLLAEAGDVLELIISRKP

[21] = target: T7, GRIP1_5, Q9Y3R0
[22] = target: T8, MPP6, Q9NZW5
[23] = target: T9, GRIP1_7, Q9Y3R0
[24] = target: Inadl_8, Q8NI35
Inadl_8, Q8NI35, sequence (Q8NI35 1425-1530): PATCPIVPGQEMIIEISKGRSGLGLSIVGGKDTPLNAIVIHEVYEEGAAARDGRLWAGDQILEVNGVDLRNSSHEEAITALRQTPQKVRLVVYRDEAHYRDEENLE

[25] = target: MAGI1_2, Q96QZ7
MAGI1_2, Q96QZ7, sequence (Q96QZ7 456-580): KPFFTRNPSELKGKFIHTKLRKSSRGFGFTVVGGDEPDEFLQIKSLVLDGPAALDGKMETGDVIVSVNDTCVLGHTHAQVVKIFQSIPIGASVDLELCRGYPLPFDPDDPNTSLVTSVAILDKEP

[26] = target: T10, GRIP1_2, Q9Y3R0
[27] = target: GIPC2, Q8TF65
GIPC2, Q8TF65, sequence (Q8TF65 112-203): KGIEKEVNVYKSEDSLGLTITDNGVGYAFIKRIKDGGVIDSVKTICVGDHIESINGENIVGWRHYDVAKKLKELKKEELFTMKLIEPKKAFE

[28] = target: GRID2IP_2, A4D2P6
GRID2IP_2, A4D2P6, sequence (A4D2P6 272-370): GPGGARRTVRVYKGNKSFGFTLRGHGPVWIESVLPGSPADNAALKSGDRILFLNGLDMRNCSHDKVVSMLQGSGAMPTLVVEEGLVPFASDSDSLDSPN

pKd [1]	pKd [2]	pKd [3]	pKd [4]	pKd [5]	pKd [6]	pKd [7]	pKd [8]	pKd [9]	pKd [10]	pKd [11]	pKd [12]	pKd [13]	pKd [14]	pKd [15]	pKd [16]	pKd [17]	pKd [18]	pKd [19]	pKd [20]	Binder	other results
5.38	below the threshold	below the threshold	below the threshold	below the threshold	below the threshold	below the threshold	below the threshold	below the threshold	below the threshold	below the threshold	below the threshold	below the threshold	below the threshold	4.5	below the threshold	below the threshold	below the threshold	below the threshold	below the threshold	AEDEEIQTKM [UNC93A, Q86WB7]	pKd [21]: below the threshold; pKd [22]: below the threshold; pKd [23]: below the threshold; pKd [24]: below the threshold; pKd [25]: below the threshold; pKd [26]: below the threshold; pKd [27]: below the threshold; pKd [28]: 3.77
4.61	5.03	below the threshold	4.55	below the threshold	below the threshold	5.08	below the threshold	4.63	below the threshold	4.91	4.81	below the threshold	4.63	below the threshold	below the threshold	below the threshold	below the threshold	below the threshold	5.47	SVISRREWYV [NECTIN3, Q9NQS3]	pKd [21]: below the threshold; pKd [22]: 4.48; pKd [23]: 5.11; pKd [24]: 3.98; pKd [25]: 4.78; pKd [26]: below the threshold; pKd [27]: below the threshold; pKd [28]: 3.49

Continued, binder first:

Binder	pKd [1]	pKd [2]	pKd [3]	pKd [4]	pKd [5]	pKd [6]	pKd [7]	pKd [8]	pKd [9]	pKd [10]	pKd [11]	pKd [12]	pKd [13]	pKd [14]	pKd [15]	pKd [16]	pKd [17]	pKd [18]	pKd [19]	pKd [20]	other results
QNRIITKTDV [SMCHD1, A6NHR9]	5.05	below the threshold	below the threshold	4.13	below the threshold	below the threshold	4.4	below the threshold	below the threshold	below the threshold	below the threshold	3.49	below the threshold	3.61	3.84	below the threshold	below the threshold	below the threshold	below the threshold	below the threshold	pKd [21]: below the threshold; pKd [22]: below the threshold; pKd [23]: below the threshold; pKd [24]: 4.77; pKd [25]: 3.99; pKd [26]: below the threshold; pKd [27]: below the threshold; pKd [28]: 3.95
GDGLDDEIAV [NOS1AP, O75052]	4.04	below the threshold	below the threshold	4.37	below the threshold	below the threshold	3.55	below the threshold	below the threshold	below the threshold	3.99	below the threshold	below the threshold	below the threshold	4.19	below the threshold	below the threshold	below the threshold	below the threshold	below the threshold	pKd [21]: below the threshold; pKd [22]: below the threshold; pKd [23]: below the threshold; pKd [24]: below the threshold; pKd [25]: below the threshold; pKd [26]: below the threshold; pKd [27]: below the threshold; pKd [28]: below the threshold
NRVDSKETEC [ADAM17, P78536]	4.86	below the threshold	below the threshold	3.59	below the threshold	below the threshold	below the threshold	below the threshold	below the threshold	below the threshold	below the threshold	below the threshold	below the threshold	below the threshold	5.06	below the threshold	3.92	3.48	below the threshold	below the threshold	pKd [21]: below the threshold; pKd [22]: below the threshold; pKd [23]: below the threshold; pKd [24]: below the threshold; pKd [25]: below the threshold; pKd [26]: 3.59; pKd [27]: 4.27; pKd [28]: below the threshold
